System: Soybean Trypsin Inhibitor (STI)
Assay: Determination of PAD6 enzyme activity: citrullination of STI, read out as trypsin activity on a fluorescent substrate
Type: biochemical
Conditions: 0.5 or 1.0 μg GST-PAD6, 0.17 μg STI, 30 minutes at 37° C., 5 mM CaCl2; FIG. 5
Text: Another example of determining the enzymatic activity of PAD6 makes use of the inactivation of a protein e.g. Soybean Trypsin Inhibitor (STI) (Talcahara, H. et al. 1985, J. Biol. Chem. 260, 8378–8383. When an essential arginine in STI is converted into citrulline it is no longer able to inhibit the proteolytic activity of trypsin. This can be used as the basis for a two-step assay for the determination of PAD activity. The assay consists of two steps. In the first reaction PAD converts the arginine (position 63) in STI into a citrulline inactivating the STI. In the second reaction trypsin and a fluorescent substrate are added and trypsin activity is measured.
FIG. 5 Fluorescence measurement to determine PAD activity. STI (0.17 μg) was pre-incubated in the absence (filled square) or presence of 0.5 μg GST-PAD6 (filled triangle), 1.0 μg GST-PAD6 (open triangle), or 0.1 μg rabbit muscle PAD (open square; Sigma cat. No P1584) respectively. Subsequently, Nα-benzoyl-L-Arginine-7-amido-4-methylcoumarin (100 μM; Sigma cat. No. B7260) and trypsin (0.25 μg) were added, and fluorescence determined.
The activity of the PAD was determined by the formation of citrulline in Soybean Trypsin Inhibitor (STI) as a substrate. […] Therefore, an increased activity of trypsin, as detected with a fluorescent trypsin substrate, indicates PAD activity. […]

B1: PAD6: Recombinant full-length human peptidylarginine deiminase 6 (SEQ ID NO:3) expressed in E. coli as GST fusion protein (protein)
chain: MSFQSIIHLSLDSPVHAVCVLGTEICLDLSGCAPQKCQCFTIHGSGRVLIDVANTVISEKEDATIWWPLSDPTYATVKMTSPSPSVDADKVSVTYYGPNEDAPVGTAVLYLTGIEVSLEVDIYRNGQVEMSSDKQAKKKWIWGPSGWGAILLVNCNPADVGQQLEDKKTKKVIFSEEITNLSQMTLNVQGPSCILKKYRLVLHTSKEESKKARVYWPQKDNSSTFELVLGPDQHAYTLALLGNHLKETFYVEAIAFPSAEFSGLISYSVSLVEESQDPSIPETVLYKDTVVFRVAPCVFIPCTQVPLEVYLCRELQLQGFVDTVTKLSEKSNSQVASVYEDPNRLGRWLQDEMAFCYTQAPHKTTSLILDTPQAADLDEFPMKYSLSPGIGYMIQDTEDHKVASMDSIGNLMVSPPVKVQGKEYPLGRVLIGSSFYPSAEGRAMSKTLRDFLYAQQVQAPVELYSDWLMTGHVDEFMCFIPTDDKNEGKKGFLLLLASPSACYKLFREKQKEGYGDALLFDELRADQLLSNGREAKTIDQLLADESLKKQNEYVEKCIHLNRDILKTELGLVEQDIIEIPQLFCLEKLTNIPSDQQPKRSFARPYFPDLLRMIVMGKNLGIPKPFGPQIKGTCCLEEKICCLLEPLGFKCTFINDFDCYLTEVGDICACANIRRVPFAFKWWKMVP
modifications: left off: a dimerising Fc or GST
PAD activity (increased trypsin activity, fluorescence): could be detected

Source: US7501273B2, “Peptidylarginine deiminase 6” (N.V. Organon, priority 2001, dated 2009)
